“Also recorded” adds a separate entry of the source. Where two headings read alike, the source gives them in different places.
How the values were obtained:
[1] = system: Phl p 5b-reactive T cell lines (TCLs) from allergic patients; test: Proliferative reaction of Phl p 5b-reactive oligoclonal T cell lines ([3H]-thymidine incorporation); assay type: cell-based, human; settings: secondary activator 0.3 μM
Protocol: In the second phase, oligoclonal T cell lines, which have been established by repeated stimulation with the relevant allergens, are employed for the testing. Once again, only those modified recombinant allergens which at least give rise to a stimulation index (SI) of 50% of the SI of the wild type are taken into consideration.
40 ml of heparinized blood were obtained from each patient. Peripheral mononuclear cells (PBMC) were then isolated from this blood sample by means of the customary method using density gradient centrifugation. Analogous cell isolations were carried out at a later stage when it was necessary to obtain irradiated autologous antigen-presenting cells (APC) for characterizing the TCL and TCC further. After the PBMC had been counted, TCL which reacted to group 5 allergens in vitro were established as follows and as has already been described in detail elsewhere (Lit. 1): in each well of 24-well microculture plates, from 1.5 to 2.0×10^6 PBMC in 1 ml of culture medium (UltraCulture) were stimulated for 7 days in the added presence of natural Phl p5 allergens (in each case 10 μg/well) which had been purified by immunoaffinity chromatography. A total of from 8 to 10 of these cultures were set up. The isolation of Phl p5 by means of immunoaffinity chromatography has been described in detail (Lit. 2). At the end of the 7 days of culture, IL-2 (from 10 to 20 IU/well) was added to the cell cultures for a further 5 to 7 days. All the individual cultures were then pooled and the T cell blasts were enriched by means of density gradient centrifugation; the TCL which were obtained were then tested in a specific lymphocyte proliferation test (see Lit. 1 as well). For this, 2×10^4/ml TCL blasts were in each case cultured with 5×10^4/ml irradiated autologous APCs in triplicate samples in 96-well microculture plates. 10-20 μg of Phl p5 allergen were added as the specific antigen stimulus. After 56 hours of incubation, ^3H-labelled thymidine (1 μCi/well) was pipetted into the microcultures. After a further 16 hours, the radioactivity which had been incorporated into the proliferating T cell blasts was measured in a beta counter (Matrix 96). The results were calculated, as the arithmetic mean of the multiple samples, in counts per minute (cpm). The criterion for the quality of the TCL was the stimulation index, which was obtained by relating the cpm values with Phl p5 addition to those without Phl p5 addition.
The oligoclonal T cell lines (TCLs) from 8 patients who were allergic to grass pollen (see Ex. 1) were established by repeated activation with natural Ph1 p 5b (a+b) or recombinant rPh1 p 5b or 5a+5b.
The proliferative reaction of these TCLs was tested using the rPh1 p 5b mutants (FIG. 10).

[2] = system: IgE antibodies of allergic patients; test: EAST inhibition test (IgE reactivity / allergenicity); assay type: binding, human; settings: for IC50: read-out: Inhibition value 50% (concentration of the inhibitor at 50% inhibition); for Allergenic potency (Prel) 25%: relative to native Phl p 5b at 25% inhibition; for Allergenic potency (Prel) 50%: relative to native Phl p 5b at 50% inhibition
Protocol: The effects of the induced mutations on the allergenicity, i.e. the ability to bind to the IgE antibodies of allergic patients, of the modified recombinant allergens is determined qualitatively and quantitatively by means of the EAST inhibition test. […] The extent of the immunochemical relatedness (cross reactivity) can also be quantified. This EAST inhibition test only takes the reaction with IgE antibodies into account.
The binding of the allergens by the IgE antibodies is the basic prerequisite for the allergen-specific activation of the effector cells (mast cells, basophils, inter alia) in type I allergy. The allergen-specific inhibition of the enzyme/allergen sorbent test (EAST) is the best means for qualitatively and quantitatively recording the binding of the allergens to IgE anti-bodies. The EAST inhibition test is carried out as follows. Microtitre plates are coated with allergen (natural or recombinant Ph1 p 5 or Ph1 p 5b) (1 μg/ml). After the unbound allergen molecules have been removed by washing, non-specific plastic binding sites are blocked with bovine serum albumin (0.5%). […] from allergic patients, as a representative pool of 10-30 donors or as an individual serum, is incubated, in a suitable dilution, with the allergen-coated microtritre plates. The bound allergen-specific IgE antibodies are quantified using enzyme-coupled anti-IgE antibodies (e.g. alk. phosphatase-a-IgE antibodies). This binding is inhibited by soluble allergen or the substance to be tested (allergen mutants) in dependence on the concentration. The inhibition curve obtained with the purified natural allergen Ph1 p 5b is used as the reference.

[3] = allergic patient serum pool Bor 18/100
[4] = allergic patient serum pool We 6/97
[5] = individual allergic patient serum II/3
[6] = individual allergic patient serum II/17

B1: DM1: deletion mutant of rPhl p 5b (ΔK50-P132, D49→L), SEQ ID NO 91 (protein)
chain: ADAGYAPATPAAAGAAAGKATTEEQKLIEDINVGFKAAVAAAASVPAALAGELQIIDKIDAAFKVAATAAATAPADDKFTVFEAAFNKAIKESTGGAYDTYKCIPSLEAAVKQAYAATVAAAPQVKYAVFEAALTKAITAMSEVQKVSQPATGAATVAAGAATTAAGAASGAATVAAGGYKV
For B1, the “Incorporation of [3H]-thymidine into TCL 2 Eic (stimulation index class)” value ([1]; primary stimulator n Phl p 5) was “+ (1-2 (+))”, the “Incorporation of [3H]-thymidine into TCL 3 Fre (stimulation index class)” value ([1]; primary stimulator n Phl p 5) was “+ (1-2 (+))” and the “Incorporation of [3H]-thymidine into TCL 4 Mer (stimulation index class)” value ([1]; primary stimulator n Phl p 5) was “+ (1-2 (+))”. The “Incorporation of [3H]-thymidine into TCL 5 17.4 (stimulation index class)” value ([1]; primary stimulator r Phl p 5) was “+ (1-2 (+))”, the “Incorporation of [3H]-thymidine into TCL 6 Mah (stimulation index class)” value ([1]; primary stimulator r Phl p 5a, r Phl p 5b) was “++ (5-10 (++))” and the “Incorporation of [3H]-thymidine into TCL 7 19.2 (stimulation index class)” value ([1]; primary stimulator r Phl p 5b) was “+++ (>10 (+++))”. For the same molecule, the “Incorporation of [3H]-thymidine into TCL 8 20.1 (stimulation index class)” value ([1]; primary stimulator r Phl p 5b) was “+++ (>10 (+++))”, the “Allergenicity / IgE reactivity, overall assessment (in words)” value ([2]; all serum pools and individual sera, Prel values) was “marked reduction in allergenicity; also recorded: greatly reduced, it is still detectable” and the “Inhibition value 25% (concentration of the inhibitor at 25% inhibition)” value [2, 3] was 8.6e-09 mol/L. The IC50 [2, 3] was 28 nM, the “Inhibition value 25% (concentration of the inhibitor at 25% inhibition)” value [2, 4] was 2.3e-08 mol/L and the IC50 [2, 4] was 17000 nM. The “Inhibition value 25% (concentration of the inhibitor at 25% inhibition)” value [2, 5] was 1.2e-08 mol/L, the IC50 [2, 5] was 17 nM and the “Inhibition value 25% (concentration of the inhibitor at 25% inhibition)” value ([2]; individual allergic patient serum II/12) was 1.5e-05 mol/L. The “Inhibition value 25% (concentration of the inhibitor at 25% inhibition)” value [2, 6] was 6.5e-09 mol/L, the IC50 [2, 6] was 2 nM and the “Allergenic potency (Prel) 25%” value ([2]; individual serum II/3) was 0.0420. The “Allergenic potency (Prel) 25%” value ([2]; individual serum II/12) was 3.4 × 10^−5, the “Allergenic potency (Prel) 25%” value ([2]; individual serum II/17) was 0.033 and the “Allergenic potency (Prel) 25%” value ([2]; serum pool Bor 18/100) was 0.039. The “Allergenic potency (Prel) 25%” value ([2]; serum pool We 6/97) was 0.022, the “Allergenic potency (Prel) 50%” value ([2]; individual serum II/3) was 0.0035 and the “Allergenic potency (Prel) 50%” value ([2]; individual serum II/12) was 1.0 × 10^−10. The “Allergenic potency (Prel) 50%” value ([2]; individual serum II/17) was 0.0010, the “Allergenic potency (Prel) 50%” value ([2]; serum pool Bor 18/100) was 0.0015 and the “Allergenic potency (Prel) 50%” value ([2]; serum pool We 6/97) was 0.0004. The “EAST inhibition curve / inhibitory effect (in words)” value ([2]; serum pool Bor 18/100 (20 donors), FIG. 1) was “markedly decreased inhibitory effect” and the “Allergenicity from EAST inhibition curves (in words)” value ([2]; serum pool We 6/97 and individual sera II3, II12, II17, FIGS. 2-5) was “greatly reduced allergenicity”.

Reference: patent publication US6919086B1, “Graminae pollen allergen mutants for specific immunotherapy, and production and use of the same” (Merck Patent Gesellschaft mit, priority 1997, dated 2005)
